Experiment [1] deals with T1, PD-L1 on PD-L1 cells (Promega, CS178103; PD1/PD-L1 Blockade Bioassay J1250/J1255) (UniProt Q9NZQ7 19-290). Nature of the experiment: cell-based or functional assay.
The target of experiment [2] is T1, PD-L1 on PD-L1 cells (Promega, …). Nature of the experiment: cell-based or functional assay. This is another data set of the same source.
Experiment [3] concerns the target mouse PD-L1 on LK35.2 cells (LK35.2 mPD-L1) (mouse, UniProt Q9EP73 19-290). Nature of the experiment: cell-based or functional assay.
In another experiment the target is T2, human PD-L1-rCD4-His (human).
T2 construct: Human PD-L1 fused to the monomeric C-terminal rat CD4 domains 3 and 4 tag and His tag; made in HEK293; The entry as printed begins with the signal peptide (MRIF...); also called hPD-L1-rCD4-His; hu-PD-L1-rCD4-His
T2 sequence (chain, as listed by the source limits assumed): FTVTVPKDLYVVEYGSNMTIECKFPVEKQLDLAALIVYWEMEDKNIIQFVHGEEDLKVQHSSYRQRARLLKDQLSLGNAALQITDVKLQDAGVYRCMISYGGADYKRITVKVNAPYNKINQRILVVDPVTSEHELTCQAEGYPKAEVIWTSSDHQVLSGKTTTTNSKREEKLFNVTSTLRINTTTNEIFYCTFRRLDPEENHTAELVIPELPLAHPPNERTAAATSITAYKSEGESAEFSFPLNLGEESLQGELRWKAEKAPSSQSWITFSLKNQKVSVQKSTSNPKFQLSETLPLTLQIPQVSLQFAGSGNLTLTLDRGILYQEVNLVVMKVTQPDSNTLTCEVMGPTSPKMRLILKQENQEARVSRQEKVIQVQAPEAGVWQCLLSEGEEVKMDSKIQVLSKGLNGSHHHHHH
The experiment is described as follows: SPR, IgG1 from culture supernatant.

A further experiment concerns the target T3, Cyno PD-L1-rCD4-His (cynomolgus).
T3 construct: The entry as printed begins with the signal peptide; also called cynomolgus PD-L1-rCD4-His
Nature of the experiment: SPR, IgG1 from culture supernatant.

The target in experiment [4] is T4, biotinylated human PD-L1-Avi-His (Acro Biosystems, PD1-H82E5) (human, UniProt Q9NZQ7 19-238, biotinylated).
T4 construct: Bought
T4 sequence (Q9NZQ7 19-238 limits assumed): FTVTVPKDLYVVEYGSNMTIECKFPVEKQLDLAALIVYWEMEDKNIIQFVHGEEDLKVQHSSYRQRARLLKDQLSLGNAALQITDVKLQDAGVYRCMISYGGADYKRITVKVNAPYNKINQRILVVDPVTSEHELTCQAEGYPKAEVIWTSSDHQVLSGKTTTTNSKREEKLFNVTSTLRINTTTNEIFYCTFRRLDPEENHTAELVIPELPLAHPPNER
Nature of the experiment: SPR (Biacore T200), mAb on Protein A chip, antigen 81-0.037 nM. The procedure:
(§1) Briefly, the anti-PD-L1 mAbs, diluted in HBS-EP buffer (GE Healthcare, BR100188) at 2 μg/ml, were injected individually on flows cell 2, 3 and 4 of a Protein A chip (GE Healthcare, 29127556) at 30 μl/min to achieve a final response of approximately 110 RU. The recombinant human, cynomolgus and mouse PD-L1-His antigens, diluted in HBS-EP buffer, were injected on flow cell 1, 2, 3 or 4 as appropriate at a concentration range of 81 nM to 0.037 nM with 3-fold dilutions for 4 min at 75 μl/min and then allowed to dissociate in buffer for 10 min. Regeneration was achieved by injecting 10 mM glycine-HCL pH1.5 (GE Healthcare, Human Antibody Capture Kit, BR00356) for 30 sec at a rate of 30 μl/min. Subtracted data (flow cell 2-flow cell 1, flow cell 3-flow cell 1, or flow cell 4-flow cell 1) were analysed using BIAevaluation 3.2 Software (GE Healthcare) to identify binding using the model 1:1 binding with mass transfer, with refractive index (RI) constant 0. To determine the affinities of the mouse PD-L1 binding curves, the Rmax of the corresponding human binding profiles was used.

The target of experiment [5] is T5, cynomolgus PD-L1-His (Acro Biosystems, PD1-C52H4) (cynomolgus, UniProt G7PSE7 19-239).
T5 construct: Bought; also called Cyno PD-L1-His
T5 sequence (G7PSE7 entry or part of it): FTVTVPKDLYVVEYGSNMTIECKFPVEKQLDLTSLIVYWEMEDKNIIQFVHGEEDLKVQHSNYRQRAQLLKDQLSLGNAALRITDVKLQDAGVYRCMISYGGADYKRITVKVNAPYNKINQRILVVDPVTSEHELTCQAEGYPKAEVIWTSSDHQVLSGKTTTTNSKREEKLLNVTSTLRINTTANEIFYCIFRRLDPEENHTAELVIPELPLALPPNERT
Described as above. The procedure: as §1

Experiment [6] concerns the target T6, human PD-L1 on HEK293 cells (HEK293.hPD-L1) (human, UniProt Q9NZQ7 19-290).
T6 construct: Flp-In T-REx 293 cells stably overexpressing human PD-L1; also called cell surface human PD-L1
Nature of the experiment: flow cytometry on HEK293 cells expressing human PD-L1, GMFI against concentration. The procedure: Non-specific binding was also assessed by testing binding to HEK293 parental cells lacking human PD-L1 (Flp-In T-Rex 293 cell line, Life Technologies, R780-07).
HEK293 and HEK293.hPD-L1 suspensions were prepared in PBS containing 0.5% BSA (Sigma. A7906) and seeded at 1×10⁵ cell/well in 100 μl in round bottomed 96-well plates (VWR, 734-1797). […] The washed cells were resuspended in the diluted antibody mixture, incubated at 4° C. for 30 minutes, and then washed once in PBS. 100 μl/well of secondary antibody (Alexa Fluor 647-AffiniPure Goat Anti-Human IgG, F(ab′)2 Fragment Specific, Stratech Scientific, 109-605-006-JIR) diluted 1:1000 in PBS was then added, the cells/antibody mixture was incubated for 20 mins at 4° C., and the cells were then washed again with PBS and resuspended in 100 μl of PBS containing 7AAD (1:1000, Biotium, 40043) before being analysed using a Canto II flow cytometer (BD Bioscience). Dead cells were excluded and the fluorescence in the FITC channel (488 nm/530/30) was measured. The geometric mean fluorescence intensity (GMFI) values were plotted against the log concentration of antibody and the resulting curves were fitted using the log (agonist) versus response equation in GraphPad Prism.

In experiment [7] the target is T7, mouse PD-L1-His (Acro Biosystems, PD1-M5220) (mouse, UniProt Q9EP73 19-238).
T7 construct: Bought; also called recombinant mouse PD-L1
T7 sequence (Q9EP73 19-238 limits assumed): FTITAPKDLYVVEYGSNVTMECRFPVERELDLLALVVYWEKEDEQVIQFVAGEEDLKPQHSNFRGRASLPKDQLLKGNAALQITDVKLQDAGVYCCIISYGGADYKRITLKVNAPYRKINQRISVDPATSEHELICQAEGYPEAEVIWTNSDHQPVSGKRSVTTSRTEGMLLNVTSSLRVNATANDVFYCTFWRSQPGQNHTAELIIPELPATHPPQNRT
Nature of the experiment: SPR (Biacore T200), mAb on Protein A chip, antigen 81-0.037 nM; Rmax of the human profile used. The procedure:
as §1

The target of experiment [8] is T4, biotinylated human PD-L1-Avi-His (Acro …). Nature of the experiment: SPR; end of the range tied to this clone by the KD values of Table 4. The procedure: as §1

From patent publication US20250270324A1 (INVOX PHARMA, published 2025) come the findings set out here.

Chain of mouse PD-L1 on LK35.2 cells (LK35.2 mPD-L1) (Q9EP73 19-290): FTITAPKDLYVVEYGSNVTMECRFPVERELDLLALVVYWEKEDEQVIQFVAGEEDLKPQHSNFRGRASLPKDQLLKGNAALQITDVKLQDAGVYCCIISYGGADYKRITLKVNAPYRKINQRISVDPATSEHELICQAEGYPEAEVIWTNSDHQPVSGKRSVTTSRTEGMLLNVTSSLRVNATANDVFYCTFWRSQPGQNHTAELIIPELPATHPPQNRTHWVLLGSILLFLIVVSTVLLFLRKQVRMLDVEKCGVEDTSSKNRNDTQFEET
T1 sequence (Q9NZQ7 19-290): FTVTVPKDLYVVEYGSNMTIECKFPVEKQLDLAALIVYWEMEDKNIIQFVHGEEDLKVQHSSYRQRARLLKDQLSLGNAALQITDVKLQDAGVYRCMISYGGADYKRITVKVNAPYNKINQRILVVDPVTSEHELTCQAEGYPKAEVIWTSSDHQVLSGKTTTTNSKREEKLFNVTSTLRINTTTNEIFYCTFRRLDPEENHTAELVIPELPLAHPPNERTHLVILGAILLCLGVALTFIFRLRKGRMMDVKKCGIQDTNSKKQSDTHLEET
T6 sequence (Q9NZQ7 19-290): as above
T3 sequence (chain, as listed by the source limits assumed): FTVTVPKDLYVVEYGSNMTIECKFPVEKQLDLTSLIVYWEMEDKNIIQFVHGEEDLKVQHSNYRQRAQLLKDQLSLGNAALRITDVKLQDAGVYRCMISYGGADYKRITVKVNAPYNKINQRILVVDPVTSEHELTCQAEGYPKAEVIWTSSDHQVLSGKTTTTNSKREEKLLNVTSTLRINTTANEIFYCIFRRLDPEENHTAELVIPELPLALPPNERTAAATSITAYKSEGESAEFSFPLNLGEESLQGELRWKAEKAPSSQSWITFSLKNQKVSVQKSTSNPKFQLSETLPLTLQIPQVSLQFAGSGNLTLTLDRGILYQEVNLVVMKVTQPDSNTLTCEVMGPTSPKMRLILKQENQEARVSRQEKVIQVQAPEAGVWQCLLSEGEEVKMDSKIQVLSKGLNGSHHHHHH

B1: G1/280_02_G02 (antibody, human IgG1, V domains shown)
VH: EVQLVQSGAEVKRPGASVKVSCKASGYTFTSYGISWVRQAPGQGLEWMGWISAYNGNTNYAQKLQGRVTMTTDTSTSTAYMELRSLRSDDTAVYYCARDLFPTIFGVSYYYYWGQGTLVTVSS
VL: QSALTQPASVSGSPGQSITISCTGTSSDVGGYNSVSWYQQFPGKAPKLMIFEVTNRPSGVSDRFSGSKSDNTASLTISGLQAEDEAEYYCSSFKRGSTLVVFG
As for B1, the “half maximal effective concentration (EC50), dose-response co-culture reporter assay (luciferase)” value in experiment [1] came to 4200 pM.

B2: G1/887_04_G12 (antibody, human IgG1, V domains shown)
VH: EVQLVQSGAEVKRPGASVKVSCKASGYTFTSYGISWVRQAPGQGLEWMGWISAYNSNTNYAQKLQGRVTMTTDTSTSTAYMELRSLRSDDTAVYYCARDLFPTIFGVSYYYYWGQGTLVTVSS
VL: DIQMTQSPSTLSASVGDRVTITCRASQSISGRLAWYQQKPGKAPNLLIYEASNLESGVPSRFSGSGSGTEFTLTISSLQPEDFATYYCQQSYSWPRTFGQGTKVEIKR
notes: IgG1 without LALA, kappa light chain
For B2, the “IC50 (nM), PD1/PD-L1 Blockade Bioassay” value in [2] is 0.33 nM. Moreover, the “EC50 (nM), mPD-L1 DO11.10 T Cell Activation Assay (IL-2 release)” value (from here on “EC50 (nM)”) in experiment [3] turned out to be 2.71 nM. In addition, the “Emax (pg/ml), mPD-L1 DO11.10 T Cell Activation Assay (IL-2 release)” value (“Emax (pg/ml)” below) in experiment [3] was 1910 pg/mL. Further, the Kd with human PD-L1-rCD4-His is 360 pM; with Cyno PD-L1-rCD4-His, 500 pM; in [4], 390 pM; in experiment [5], 450 pM; in experiment [7] it was 225000 pM. The molecule further showed a half-maximal effective concentration (EC50) in [6] of 270 pM.

B3: G1/887_04_E12 (antibody, human IgG1, V domains shown)
VH: EVQLVQSGAEVKRPGASVKVSCKASGYPFTSYGISWVRQAPGQGLEWMGWISAYNSNTNYAQKLQGRVTMTTDTSTSTAYMELRSLRSDDTAVYYCARDLFPTIFGVSYYYYWGQGTLVTVSS
VL: DIQMTQSPSTLSASVRDRVIITCRASQSIGNRLAWYQHKPGKAPKLLIYEASTSETGVPSRFSGSGSGTDFTLTISSLQPEDFATYYCQQSYSTPYTFGQGTKLEIKR
notes: IgG1 without LALA, kappa light chain; proline at Kabat position 28 of VH
Regarding B3, in experiment [2], the “IC50 (nM), PD1/PD-L1 Blockade Bioassay” value is 0.35 nM. Also, the “EC50 (nM)” value in experiment [3] was determined as 1.02 nM. The “Emax (pg/ml)” value in [3] was 1970 pg/mL. The dissociation constant (Kd) with human PD-L1-rCD4-His stood at 210 pM; with Cyno PD-L1-rCD4-His it was 250 pM; in experiment [4] it was 230 pM; in experiment [5], 280 pM; in experiment [7] it was 38000 pM. In addition, the “fold higher binding affinity than G1AA/280_02_G02_NS” value in experiment [8] is 1.8 to 4.8 fold. Further, the EC50 in experiment [6] was found to be 260 pM.

B4: G1/894_08_E05 (antibody, human IgG1, V domains shown)
VH: EVQLVQSGAEVKRPGASVKVSCKASGYTFTSYGISWVRQAPGQGLEWMGWISAYNSNTNYAQKLQGRVTMTTDTSTSTAYMELRSLRSDDTAVYYCARDLFPTIFGVSYYYYWGQGTLVTVSS
VL: DIQMTQSPSTLSASVGDRVTITCRASQSISGRLAWYQQKPGKAPNLLIYEASNLESGVPSRFSGSGSGTEFTLTISSLQPEDFATYYCQQSYSTPRVTFGQGTKVEIKR
notes: IgG1 without LALA, kappa light chain; also called G1/894_8_E05
For the molecule B4, in experiment [2], the “IC50 (nM), PD1/PD-L1 Blockade Bioassay” value stood at 0.36 nM. Also, the “EC50 (nM)” value in [3] is 4.37 nM. Besides, in [3], the “Emax (pg/ml)” value was 2110 pg/mL. Further, the Kd with human PD-L1-rCD4-His amounted to 480 pM; with Cyno PD-L1-rCD4-His, 590 pM; in experiment [4], 600 pM; in [5], 490 pM; in experiment [7], 223000 pM. The “fold higher binding affinity than G1AA/280_02_G02_NS” value in experiment [8] was in the range of 1.8 to 4.8 fold. The midpoint of the response in experiment [6], the EC50, lay at 290 pM.

B5: G1AA/280_02_G02_NS (antibody, human IgG1, L234A L235A)
heavy: not shown
light: QSALTQPASVSGSPGQSITISCTGTSSDVGGYNSVSWYQQFPGKAPKLMIFEVTNRPSGVSDRFSGSKSDNTASLTISGLQAEDEAEYYCSSFKRGSTLVVFGGGTKLTVLGQPAAAPSVTLFPPSSEELQANKATLVCLISDFYPGAVTVAWKADSSPVKAGVETTTPSKQSNNKYAASSYLSLTPEQWKSHRSYSCQVTHEGSTVEKTVAPTECS
notes: also called G1AA/280_2_G02_NS
Turning to B5, the values for the Kd in [4], in experiment [5] and in [7] were 1100 pM, 1320 pM and 137000 pM, respectively.
